The source of these data is article PMC2646663 (Biochemistry, 2008).

Data set [1] has as its target T1, Formylglycinamide ribonucleotide amidotransferase (small PurL) from Thermotoga maritima (Thermotoga maritima, UniProt Q9X0X3 1-603).
T1 sequence: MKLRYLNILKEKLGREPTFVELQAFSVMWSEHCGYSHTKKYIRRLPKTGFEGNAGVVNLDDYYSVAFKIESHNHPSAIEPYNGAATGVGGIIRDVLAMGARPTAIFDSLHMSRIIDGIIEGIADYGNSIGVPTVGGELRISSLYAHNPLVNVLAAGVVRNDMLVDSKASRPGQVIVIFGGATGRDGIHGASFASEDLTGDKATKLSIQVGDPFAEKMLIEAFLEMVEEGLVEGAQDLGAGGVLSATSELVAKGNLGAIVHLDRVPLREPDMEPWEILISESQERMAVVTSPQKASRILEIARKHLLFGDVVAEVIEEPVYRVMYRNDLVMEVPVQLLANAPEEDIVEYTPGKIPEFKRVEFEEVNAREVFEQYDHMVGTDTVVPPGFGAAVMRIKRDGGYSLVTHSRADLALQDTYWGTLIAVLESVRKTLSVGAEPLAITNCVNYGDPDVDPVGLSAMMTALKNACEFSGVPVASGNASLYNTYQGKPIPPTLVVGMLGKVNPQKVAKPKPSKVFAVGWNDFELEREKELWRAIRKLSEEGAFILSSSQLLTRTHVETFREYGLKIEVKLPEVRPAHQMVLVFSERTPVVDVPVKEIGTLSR
Nature of the data set: crystal structure.

The data set “crystal structure” concerns the molecule itself. Nature of the data set: crystal structure.

B1: PurQ (glutaminase subunit of FGAR amidotransferase) from Thermotoga maritima (enzyme)
chain: MKPRACVVVYPGSNCDRDAYHALEINGFEPSYVGLDDKLDDYELIILPGGFSYGDYLRPGAVAAREKIAFEIAKAAERGKLIMGICNGFQILIEMGLLKGALLQNSSGKFICKWVDLIVENNDTPFTNAFEKGEKIRIPIAHGFGRYVKIDDVNVVLRYVKDVNGSDERIAGVLNESGNVFGLMPHPERAVEELIGGEDGKKVFQSILNYLKR
modifications: glutamyl thioester intermediate covalently linked to Cys86 (seen in the crystal structure)
In the case of B1, in data set [1], the “stoichiometry N” value came to 1 TmPurQ per TmPurL.

B2: PurS from Thermotoga maritima (natural protein)
chain: MPLFKFAIDVQYRSNVRDPRGETIERVLREEKGLPVKKLRLGKSIHLEVEAENKEKAYEIVKKACEELLVNPVVEEYEVREL
With B2, the “stoichiometry N” value in data set [1] turned out to be 2 TmPurS per TmPurL; in “crystal structure”, 2.
